B1: rhIGFBP-2: recombinant human IGFBP-2 protein (protein, UniProt P18065 36-325, looked up)
Insulin-like growth …: AEVLFRCPPCTPERLAACGPPPVAPPAAVAAVAGGARMPCAELVREPGCGCCSVCARLEGEACGVYTPRCGQGLRCYPHPGSELPLQALVMGEGTCEKRRDAEYGASPEQVADNGDDHSEGGLVENHVDSTMNMLGGGGSAGRKPLKSGMKELAVFREKVTEQHRQMGKGGKHHLGLEEPKKLRPPPARTPCQQELDQVLERISTMRLPDERGPLEHLYSLHIPNCDKHGLYNLKQCKMSLNGQRGECWCVNPNTGKLIQGAPTIRGDPECHLFYNEQQEARGVHTQRMQ

Legend:
IGFBP-2 = IGFBP-2 ELISA in conditioned media of FM-516 cells infected with Ad.5/3-mda-9; format: cell-based, human; conditions: Ad.5/3-mda-9, 1-5 μM (FIG. 4F)
HuVECs [1] = assay: HuVEC migration through Matrigel; format: cell-based, human; conditions: HuVECs treated with rhIGFBP-2 (FIG. 3C)
Description: FIG. 2A-G. Effect of mda-9/syntenin on the angiogenic phenotype of human vascular endothelial cells (HuVECs). a) Time course analysis of growth of HuVECs in co-culture with either C8161.9-con-sh or C8161.9-shmda-9 clones. b) Analysis of tube formation by HuVECs co-cultured with C8161.9-con-sh or C8161.9-shmda-9 clones on Matrigel coated plates grown in serum-starved media conditions. Left panel, photomicrograph, Right panel, graphical representation of quantification of tube formation. Data represents Mean±S.D. c) HuVEC migration towards melanoma cells. […] HuVECs migration was quantified and graphical representation is provided in the lower panel. […] The assay was scored after 18 h. Photomicrograph (Left panel) and graphical quantification of migration (Right panel) is presented. […] Left panel, photomicrograph, Right panel, graphical representation of quantitation of tube formation. […]
FIG. 3 A-H. Pro-angiogenic activity of IGFBP-2. a) Top panel, an antibody-based array comparing the expression levels of regulators of angiogenesis in CM from C8161.9 con-sh and C8161.9-shmda-9 clones was performed as described in Materials and Methods. […] Data represents Mean±S.D. c, d & e) HuVECs were treated with rhIGFBP-2 with or without neutralizing antibody (NA) and migration (c), tube formation (d) and vascularization in CAM (e) were analyzed. […] Tumor weight was measured at the end of the study. […]

HuVECs [2] = assay: HuVEC proliferation (growth kinetics, trypan blue dye exclusion); format: cell-based, human; conditions: HuVECs treated with rhIGFBP-2 (FIG. 3B)
Method: FIG. 3 A-H. Pro-angiogenic activity of IGFBP-2. a) Top panel, an antibody-based array comparing the expression levels of regulators of angiogenesis in CM from C8161.9 con-sh and C8161.9-shmda-9 clones was performed as described in Materials and Methods. Bottom panel, graphical representation of the band intensity quantified by densitometry. b) HuVECs were cultured in the presence of recombinant human IGFBP-2 (rhIGFBP-2) protein alone or with neutralizing antibody (NA) and growth kinetics were determined by trypan blue dye exclusion as described in Materials and Methods. Data represents Mean±S.D. c, d & e) HuVECs were treated with rhIGFBP-2 with or without neutralizing antibody (NA) and migration (c), tube formation (d) and vascularization in CAM (e) were analyzed. Data represents Mean±S.D. f) C8161.9 cells were transfected with either scrambled RNA (si-con) or si-IGFBP-2 and CM were analyzed for tube formation on Matrigel (upper panel) and vascularization in CAM (lower panel). g) Pooled clones of C8161.9 cells stably expressing shIGFBP-2 were established and assessed for tumor generation ability in athymic nude mice (n=5, repeated three times). […] Tumor weight was measured at the end of the study. Data represents Mean±S.D. In panel c), d) and g), italicized letters indicate significant differences between groups assessed by Student's t-test (p<0.05). […]

AKT = AKT activation (pAKT Western blotting) in HuVECs; format: cell-based, human; conditions: rhIGFBP-2 treatment of HuVECs (FIG. 5C)
Method: (§1) FIG. 5A-G. IGFBP-2 upregulates the expression of vascular endothelial growth factor (VEGF-A) through the AKT pathway in HuVECs. a) The expression of VEGF-A mRNA (top panel) and protein (bottom panel) were measured by real-time PCR and ELISA, respectively, after treating HuVECs with the indicated doses of rhIGFBP-2. Data represents Mean±S.D. b) HuVECs were transfected with VEGF-A promoter luciferease reporter plasmid and treated with the indicated concentrations of rhIGFBP-2. 48 h after transfection, cells were harvested for luciferase assays as described in Materials and Methods. c) HuVECs (1×10^6 cells) were treated or untreated with the specified doses of rhIGFBP-2 for the indicated times and expression of pAKT and AKT was analyzed by Western blotting. d) HuVECs were pre-treated with LY294002 (30 min) and then treated with rhIGFBP-2. Top panel, analysis of the expression of pART and AKT by Western blotting. Bottom panel, analysis the expression of VEGF-A by ELISA in the CM. e) HuVECs were treated with rhIGFBP-2 together with anti-αVβ3 integrin antibody or anti-mouse IgG as control. Top panel, analysis of expression of pAKT and AKT by Western blotting. Bottom panel, analysis of expression of VEGF-A by ELISA in the CM. f & g) HuVECs were treated as in “e” and CM was used to analyze tube formation […] and neovascularization in CAM (g). […]

VEGF-A = VEGF-A expression in HuVECs (real-time PCR, ELISA); format: cell-based, human; conditions: HuVECs stimulated with rhIGFBP-2 (FIG. 5A)
Method: as §1

HuVECs [3] = assay: Capillary-like tube formation by HuVECs on Matrigel; format: cell-based, human; conditions: HuVECs treated with rhIGFBP-2 (FIG. 3D)
Method: Tube formation assays were performed as described previously (28) using an In Vitro Angiogenesis Assay Kit (Chemicon). The degree of network formation was quantified using the provider's instruction.

[4] = system: chicken chorioallantoic membrane (CAM); assay: Chorioallantoic membrane (CAM) neovascularization assay; format: in vivo; conditions: HuVECs treated with rhIGFBP-2 (FIG. 3E)
Method: To detect in vivo angiogenesis, we performed CAM assays as described (28). Either cells or CM in a collagen sponge were implanted onto the CAM at day 8 of fertilization. At day 12, CAMs were fixed with 10% formalin; the neovasculature was examined and photographed.
Fertilized chicken eggs (10 eggs per group) was incubated under routine conditions and a square window was opened in the egg shell at the third day of incubation, after removal of 2-3 ml of albumen to detach the shell from the developing CAM. The window was sealed with a glass of the same size and the eggs were returned to the incubator. Either cells or conditioned media with collagen sponge was implanted onto the CAM at day 8 of incubation. At day 12, CAMs were fixed with 10% formalin the neovasculature was examined and photographed.

VEGF-A promoter = VEGF-A promoter luciferase reporter assay in HuVECs; format: cell-based, human; conditions: HuVECs treated with rhIGFBP-2, 48 h after transfection (FIG. 5B)
Method: as §1

VEGF-A promoter activity (VEGF-A promoter)	Molecule	mda-9/syntenin-induced IGFBP-2 expression (IGFBP-2)	HuVEC migration (HuVECs [1])	HuVEC proliferation (HuVECs [2])	time to AKT activation (AKT)	VEGF-A expression, both RNA and protein (VEGF-A)	HuVEC tube formation (HuVECs [3])	vascularization in CAM [4]
–	CC(C)(C)n1nc(-c2ccc(Cl)cc2)c2c(N)ncnc21 [PP-2]	dose-dependent decrease	–	–	–	–	–	–
dose-dependently up-regulated	B1	–	significantly stimulated	significantly stimulated	≤ 15 min	dose-dependently up-regulated	significantly stimulated	significant vascularization
